The values below come from paper PMC6698748.

Experiment [1] has as its target MtsR (wild type, recombinant, untagged) (Streptococcus pyogenes (group A streptococcus), strain MGAS10870, serotype M3). The experiment in a line: SEC. On the technique in general: In gel filtration, larger molecules generally elute earlier.
Experiment [2] has as its target MtsR F187A (Streptococcus pyogenes (group A streptococcus), strain MGAS10870, serotype M3). The experiment in a line: SEC.

Take “MtsR (wild type, recombinant, untagged) (natural protein)”: in experiment [1], the stoichiometry N stood at 2.

Consider MtsR F187A (natural protein), for which the stoichiometry N in experiment [2] worked out at 2.

The term stoichiometry N denotes a count of units in the complex or per binding partner.
